Sequences and labels used below:
B1: engineered scaffold protein S090 (designed binder)
chain: IKEEHSIRQNEMYLNPDQSGLFEFHLDGQPIFRVDMQKKRTKWQLEEFGRFASFEAQGALANIAVDKANLEIMTKRSNQSEAGSHSWQLIFVCEFHEGTESVRLSERCYYNQELSVSFNSDVGEYRAVTELGRPDAEYWNSQKDLLEQRRAAVDTYCRHNYGVGESFTVQRRGGSHHHHHHLE
B2: engineered scaffold protein S005 (designed binder)
chain: MIKEEHVIIQAEFYLNPDQSGEFMFDFDGDEIFHVDMAKKETVWRLEEFGRFASFEAQGALANIAVDKANLEIMTKRSNYTPMGDTRPRFLWQLKFECHFFNGTERVRLLERCIYNQEESVRFDSDVGEYRAVTELGRPDAEYWNSQKDLLEQRRAAVDTYCRHNYGVGESFTVQGGSHHHHHHLE
B3: engineered scaffold protein S068 (designed binder)
chain: GDTRPRFLWQLKFECHFFNGTERVRLLERCIYNQEESVRFDSDVGEYRAVTELGRPDAEYWNSQKDLLEQRRAAVDTYCRHNYGVGESFTVQRRVEPKVTVYPSKTQPLQHHNLLVCSVSGFYPGSIEVRWFRNGQEEKAGVVSTGLIQNGDWTFQTLVMLETVPRSGEVYTCQVEHPSVTSPLTVEWRASGGGGSGGGGSGGGGIKEEHVIIQAEFYLNPDQSGEFMFDFDGDEIFHVDMAKKETVWRLEEFGRFASFEAQGALANIAVDKANLEIMTKRSNYTPITNVPPEVTVLTNSPVELREPNVLICFIDKFTPPVVNVTWLRNGKPVTTGVSETVFLPREDHLFRKFHYLPFLPSTEDVYDCRVEHWGLDEPLLKHWEFDAPSGGSHHHHHHLE

This assay concerns the target TRPV1 disordered region polypeptide (UniProt Q8NER1). Nature of the assay: modified sandwich ELISA, fluorescence grade by the table's key. (In general: An ELISA detects its analyte on a solid surface through an enzyme-linked reagent.)
The molecule B1 showed a fluorescent signal (fluorescentsignal) of 100000 to 250000.

B2 came in with a fluorescent signal (fluorescentsignal) of 100000 to 250000.

B3 registered a fluorescent signal (fluorescentsignal) of 50000 to 100000.

For the origin of these results see US20250387450A1.
